Source: patent US20060063709A1

Target: NF-kB from mouse cells (nuclear extracts of TPA-stimulated 70Z/3 pre-B cells; also nuclear extracts of the mouse B cell line WEHI 231; cytosolic precursor of 70Z/3) (mouse)

A DNA binding activity of NF-kB in EMSA (inhibitor assay) of over 90% and a reactivation of IkB-inactivated NF-kB DNA binding activity by DOC (EMSA) of 66% were found for “IkB (protein inhibitor of NF-kB) prepared from cytosol of unstimulated mouse 70Z/3 pre-B cells” in this work.
